One molecule from patent US20240261333A1 (published 2024) can be followed below.

Holding throughout (assay): co-IP, anti-FLAG, lysate of cells with C-FLAG B3GNT2; mass spectrometry
The target of assay [1] is T1, CAT (human, UniProt P04040 2-527).
T1 construct: also called NP_001743.1
T1 sequence (looked up): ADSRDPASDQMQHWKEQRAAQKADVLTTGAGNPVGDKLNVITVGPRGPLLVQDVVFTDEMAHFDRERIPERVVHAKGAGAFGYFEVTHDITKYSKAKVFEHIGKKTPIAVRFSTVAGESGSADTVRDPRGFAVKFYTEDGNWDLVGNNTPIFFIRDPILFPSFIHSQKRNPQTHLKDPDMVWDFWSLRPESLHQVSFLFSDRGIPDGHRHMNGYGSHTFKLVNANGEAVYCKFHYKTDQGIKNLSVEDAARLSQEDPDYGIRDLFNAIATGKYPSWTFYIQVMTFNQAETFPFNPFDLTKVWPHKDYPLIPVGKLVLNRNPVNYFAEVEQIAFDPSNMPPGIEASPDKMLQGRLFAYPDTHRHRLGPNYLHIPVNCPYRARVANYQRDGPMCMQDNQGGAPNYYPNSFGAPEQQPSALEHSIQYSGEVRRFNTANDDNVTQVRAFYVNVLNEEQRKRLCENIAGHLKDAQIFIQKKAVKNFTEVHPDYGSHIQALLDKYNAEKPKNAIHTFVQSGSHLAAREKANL
The method, then:
(§1) Cells were plated in 10-cm cell culture dishes and grown to 60-80% confluency. For each condition, two biological replicates were harvested for co-IP. Cells were washed with PBS and 4 mL of lysis buffer (20 mM HEPES, 1% Triton X-100, 150 mM NaCl, 1 mM EDTA, and 10% glycerol) containing protease inhibitor cocktail was added. Cells were scraped and lysate was incubated at 4° C. under rotary agitation for 1 h. Lysate was centrifuged at 14,000×g for 10 min at 4° C. Supernatant was transferred to a new tube and an aliquot was taken as the input. […] For Western blots, 10 μg/mL Chicken Anti-FLAG (Aves labs ET-DY100) and IgY control (R&D Systems AB-101-C) antibodies were biotinylated (Thermo Fisher Scientific 90407) and added to the respective conditions. Lysates with antibodies were incubated at 4° C. under rotary agitation overnight. For each mL of lysate, 50 μL of Pierce Protein A/G Magnetic Beads (Mass spectrometry; Thermo Fisher Scientific 88803) or Pierce Streptavidin Magnetic Beads (Western blot; Thermo Fisher Scientific 88817) was washed twice with lysis buffer. Lysates with antibodies were added to the beads and incubated at 4° C. under rotary agitation for 4 h. Beads were washed with lysis buffer 3 times and resuspended in lysis buffer for storage.
(§2) Magnetic beads were resuspended in 100 mM Tris pH 7.8, reduced, alkylated and digested with trypsin at 37° ° C. overnight. This solution was subjected to solid phase extraction to concentrate the peptides and remove unwanted reagents followed by injection onto a Shimadzu HPLC with fraction collector. Eight fractions were collected and after concentration were injected on a Waters NanoAcquity HPLC equipped with a self-packed Aeris 3 μm C18 analytical column 0.075 mm by 20 cm, (Phenomenex). Peptides were eluted using standard reverse-phase gradients. The effluent from the column was analyzed using a Thermo Orbitrap Elite mass spectrometer (nanospray configuration) operated in a data dependent manner for 54 minutes. The resulting fragmentation spectra were correlated against the known database using Proteome Discover 1.4 (Thermo Fisher Scientific).

In assay [2] the target is T2, HNRNPA2B1 (human, UniProt P22626-2 1-341).
T2 construct: also called NP_002128.1 (+1)
T2 sequence (P22626 other isoform, or with tags, fused parts or gaps limits assumed): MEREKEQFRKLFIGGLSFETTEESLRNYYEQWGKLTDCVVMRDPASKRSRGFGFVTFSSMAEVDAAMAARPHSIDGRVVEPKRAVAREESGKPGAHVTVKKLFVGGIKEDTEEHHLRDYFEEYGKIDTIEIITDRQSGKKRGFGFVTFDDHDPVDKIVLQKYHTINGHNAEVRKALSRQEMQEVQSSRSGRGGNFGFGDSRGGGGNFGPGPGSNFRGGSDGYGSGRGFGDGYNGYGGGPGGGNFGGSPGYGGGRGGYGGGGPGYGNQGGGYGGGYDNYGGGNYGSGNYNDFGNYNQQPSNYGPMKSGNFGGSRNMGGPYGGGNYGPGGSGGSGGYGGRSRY
On the procedure: as §1, §2

For assay [3], the target named is T3, UBAP2L (human, UniProt Q14157 1-1087).
T3 construct: also called NP_055662.3 (+3)
T3 sequence (looked up): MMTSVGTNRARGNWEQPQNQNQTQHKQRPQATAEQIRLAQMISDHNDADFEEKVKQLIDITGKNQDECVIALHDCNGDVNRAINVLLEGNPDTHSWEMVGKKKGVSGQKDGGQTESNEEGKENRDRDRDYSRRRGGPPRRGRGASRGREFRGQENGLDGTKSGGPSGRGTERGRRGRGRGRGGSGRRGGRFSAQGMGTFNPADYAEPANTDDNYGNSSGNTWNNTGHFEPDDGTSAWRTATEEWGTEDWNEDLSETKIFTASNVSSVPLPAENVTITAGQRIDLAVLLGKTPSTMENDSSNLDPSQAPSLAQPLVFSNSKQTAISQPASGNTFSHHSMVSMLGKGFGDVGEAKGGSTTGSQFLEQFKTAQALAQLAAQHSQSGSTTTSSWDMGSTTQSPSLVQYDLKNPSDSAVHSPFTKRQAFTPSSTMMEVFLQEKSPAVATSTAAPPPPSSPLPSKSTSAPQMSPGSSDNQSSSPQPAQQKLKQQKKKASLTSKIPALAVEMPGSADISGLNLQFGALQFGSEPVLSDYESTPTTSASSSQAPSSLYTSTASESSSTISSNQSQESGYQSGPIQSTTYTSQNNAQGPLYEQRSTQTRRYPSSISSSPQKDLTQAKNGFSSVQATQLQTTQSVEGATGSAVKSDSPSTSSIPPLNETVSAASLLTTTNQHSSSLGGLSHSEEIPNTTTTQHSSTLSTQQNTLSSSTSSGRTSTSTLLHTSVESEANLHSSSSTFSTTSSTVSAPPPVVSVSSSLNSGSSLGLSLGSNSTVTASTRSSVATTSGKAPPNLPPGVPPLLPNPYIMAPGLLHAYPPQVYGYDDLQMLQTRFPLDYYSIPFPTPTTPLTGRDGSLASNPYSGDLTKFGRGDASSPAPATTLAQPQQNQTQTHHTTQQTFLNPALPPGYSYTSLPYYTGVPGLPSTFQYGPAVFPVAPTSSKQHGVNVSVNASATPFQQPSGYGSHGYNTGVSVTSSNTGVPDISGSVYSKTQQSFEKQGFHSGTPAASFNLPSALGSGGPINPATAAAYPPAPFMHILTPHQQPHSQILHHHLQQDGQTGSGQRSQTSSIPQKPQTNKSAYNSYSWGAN
On the procedure: as §1, §2

B1: C-terminal FLAG tagged B3GNT2 (enzyme, human, UniProt Q9NY97 1-397, looked up)
chain: MSVGRRRIKLLGILMMANVFIYFIMEVSKSSSQEKNGKGEVIIPKEKFWKISTPPEAYWNREQEKLNRQYNPILSMLTNQTGEAGRLSNISHLNYCEPDLRVTSVVTGFNNLPDRFKDFLLYLRCRNYSLLIDQPDKCAKKPFLLLAIKSLTPHFARRQAIRESWGQESNAGNQTVVRVFLLGQTPPEDNHPDLSDMLKFESEKHQDILMWNYRDTFFNLSLKEVLFLRWVSTSCPDTEFVFKGDDDVFVNTHHILNYLNSLSKTKAKDLFIGDVIHNAGPHRDKKLKYYIPEVVYSGLYPPYAGGGGFLYSGHLALRLYHITDQVHLYPIDDVYTGMCLQKLGLVPEKHKGFRTFDIEEKNKNNICSYVDLMLVHSRKPQEMIDIWSQLQSAHLKC
notes: Overexpressed in cells and pulled down from the lysate with mouse anti-FLAG antibody; also called C-FLAG B3GNT2; C-term flag; not shown: C-terminal FLAG tag
Regarding B1, the figures for the “co-IP mass spectrometry count” value in assay [1], in assay [2] and in assay [3] were 0, 8 and 19, respectively.
